Assay results as given in IntAct's records for PubMed 19287395.

B1: Serine/threonine-protein phosphatase 1 regulatory subunit 10 (Mus musculus), Q80W00 (parent)
chain: MGSGPIDPKELLKGLDSFLTRDGEVKSVDGISKIFSLMKEARKMVSRCTYLNIILQTRAPEVLVKFIDVGGYKLLNNWLTYSKTTNNIPLLQQILLTLQHLPLTVDHLKQNNTAKLVKQLSKSSEDEELRKLASVLVSDWMAVIRSQSSTQPAEKDKKKRKEEGKSRTTLPERPLTEVKAETRAEEAPEKKKEKPKSLRTTAPSHAKFRSTGLELDTPSLVPVKKNSSTVVVSDKYNLKPIPLKRQSATAAPGDAAPPAEKKYKPLNTAPNTTKEIKVKIIPPQPMEGLGFLDALNSAPVPGIKIKKKKKVLSPTAAKPSPFEGKTSTEQSTAKPSSPEPAPPAEPMDTDRPGTPVPPVEVPELMDAASSEPGALDAKPVDSPGDPNQLTRKGRKRKTVTWPEEGKLREYFYFELDETERVNVNKIKDFGEAAKREILSDRHAFETARRLSHDNMEEKVPWVCPRPLVLPSPLVIPGSNSQERYIQAEREKGILQELFLNKESPHEPDPEPYEPIPPKLIPLDEECAMDETPYVETLEPGGSGGSPDGAGGSKLPPVLANLMGSMGAGKSPQGPGGGGINVQEILTSIMGSPNSHPSEELLKQPDYSDKLKQMLVPHGLLGPGPVANGFPPGGPGGPKGMQHFPPGPGGPMPGPHGGPGGPVGPRLLGPPPPSRGGDPFWDGPGDPMRGGPMRGGPGPAPGPYHRGRGGRGGNEPPPPPPFRGARGGRSGGGPPNGRGGPGGGGMVGGGGHRPHEGPGGSMGSGHRSHDGPGGNMGSGHRSHDGPGGNMGGSGGHRSHEGPGHGGPHGHRPHDVPSHRGHDHRGPPPHEHRGHDGHGGGGHRGHDGGHSHGGDMSNRPVCRHFMMKGNCRYENNCAFYHPGVNGPPLP
B2: Microcephalin (Homo sapiens), Q8NEM0 (parent)
chain: MAAPILKDVVAYVEVWSSNGTENYSKTFTTQLVDMGAKVSKTFNKQVTHVIFKDGYQSTWDKAQKRGVKLVSVLWVEKCRTAGAHIDESLFPAANMNEHLSSLIKKKRKCMQPKDFNFKTPENDKRFQKKFEKMAKELQRQKTNLDDDVPILLFESNGSLIYTPTIEINSRHHSAMEKRLQEMKEKRENLSPTSSQMIQQSHDNPSNSLCEAPLNISRDTLCSDEYFAGGLHSSFDDLCGNSGCGNQERKLEGSINDIKSDVCISSLVLKANNIHSSPSFTHLDKSSPQKFLSNLSKEEINLQRNIAGKVVTPDQKQAAGMSQETFEEKYRLSPTLSSTKGHLLIHSRPRSSSVKRKRVSHGSHSPPKEKCKRKRSTRRSIMPRLQLCRSEDRLQHVAGPALEALSCGESSYDDYFSPDNLKERYSENLPPESQLPSSPAQLSCRSLSKKERTSIFEMSDFSCVGKKTRTVDITNFTAKTISSPRKTGNGEGRATSSCVTSAPEEALRCCRQAGKEDACPEGNGFSYTIEDPALPKGHDDDLTPLEGSLEEMKEAVGLKSTQNKGTTSKISNSSEGEAQSEHEPCFIVDCNMETSTEEKENLPGGYSGSVKNRPTRHDVLDDSCDGFKDLIKPHEELKKSGRGKKPTRTLVMTSMPSEKQNVVIQVVDKLKGFSIAPDVCETTTHVLSGKPLRTLNVLLGIARGCWVLSYDWVLWSLELGHWISEEPFELSHHFPAAPLCRSECHLSAGPYRGTLFADQPAMFVSPASSPPVAKLCELVHLCGGRVSQVPRQASIVIGPYSGKKKATVKYLSEKWVLDSITQHKVCAPENYLLSQ
B3: Telomeric repeat-binding factor 2 (Homo sapiens), Q15554 (parent)
chain: MAAGAGTAGPASGPGVVRDPAASQPRKRPGREGGEGARRSDTMAGGGGSSDGSGRAAGRRASRSSGRARRGRHEPGLGGPAERGAGEARLEEAVNRWVLKFYFHEALRAFRGSRYGDFRQIRDIMQALLVRPLGKEHTVSRLLRVMQCLSRIEEGENLDCSFDMEAELTPLESAINVLEMIKTEFTLTEAVVESSRKLVKEAAVIICIKNKEFEKASKILKKHMSKDPTTQKLRNDLLNIIREKNLAHPVIQNFSYETFQQKMLRFLESHLDDAEPYLLTMAKKALKSESAASSTGKEDKQPAPGPVEKPPREPARQLRNPPTTIGMMTLKAAFKTLSGAQDSEAAFAKLDQKDLVLPTQALPASPALKNKRPRKDENESSAPADGEGGSELQPKNKRMTISRLVLEEDSQSTEPSAGLNSSQEAASAPPSKPTVLNQPLPGEKNPKVPKGKWNSSNGVEEKETWVEEDELFQVQAAPDEDSTTNITKKQKWTVEESEWVKAGVQKYGEGNWAAISKNYPFVNRTAVMIKDRWRTMKRLGMN
partner: B1 chain
B4: TERF1-interacting nuclear factor 2 (Homo sapiens), Q9BSI4 (parent)
chain: MATPLVAGPAALRFAAAASWQVVRGRCVEHFPRVLEFLRSLRAVAPGLVRYRHHERLCMGLKAKVVVELILQGRPWAQVLKALNHHFPESGPIVRDPKATKQDLRKILEAQETFYQQVKQLSEAPVDLASKLQELEQEYGEPFLAAMEKLLFEYLCQLEKALPTPQAQQLQDVLSWMQPGVSITSSLAWRQYGVDMGWLLPECSVTDSVNLAEPMEQNPPQQQRLALHNPLPKAKPGTHLPQGPSSRTHPEPLAGRHFNLAPLGRRRVQSQWASTRGGHKERPTVMLFPFRNLGSPTQVISKPESKEEHAIYTADLAMGTRAASTGKSKSPCQTLGGRALKENPVDLPATEQKENCLDCYMDPLRLSLLPPRARKPVCPPSLCSSVITIGDLVLDSDEEENGQGEGKESLENYQKTKFDTLIPTLCEYLPPSGHGAIPVSSCDCRDSSRPL

Variants of: B1
Conditions: with terf2_human TERF2, Q15554

| effect of a mutation on the interaction | Variant |
| --- | --- |
| disrupting interaction | Y236A;L238A |

Variants of: B2
Conditions: with terf2_human TERF2, Q15554

| effect of a mutation on the interaction | Variant |
| --- | --- |
| disrupting interaction | Y330A;L332A |

Variants of: B3
Conditions: with pp1ra_mouse Ppp1r10, Q80W00

| effect of a mutation on the interaction | Variant |
| --- | --- |
| disrupting interaction strength | F162A |

Variants of: B4
Conditions: with terf2_human TERF2, Q15554

| effect of a mutation on the interaction | Variant |
| --- | --- |
| decreasing interaction | F258A;L260A |
